Source: US6444641

Biological target: serum albumin (UniProt P08835)
Assay: cell-based or functional assay

Sequence of UniProt P08835 (P08835 25-607 limits assumed): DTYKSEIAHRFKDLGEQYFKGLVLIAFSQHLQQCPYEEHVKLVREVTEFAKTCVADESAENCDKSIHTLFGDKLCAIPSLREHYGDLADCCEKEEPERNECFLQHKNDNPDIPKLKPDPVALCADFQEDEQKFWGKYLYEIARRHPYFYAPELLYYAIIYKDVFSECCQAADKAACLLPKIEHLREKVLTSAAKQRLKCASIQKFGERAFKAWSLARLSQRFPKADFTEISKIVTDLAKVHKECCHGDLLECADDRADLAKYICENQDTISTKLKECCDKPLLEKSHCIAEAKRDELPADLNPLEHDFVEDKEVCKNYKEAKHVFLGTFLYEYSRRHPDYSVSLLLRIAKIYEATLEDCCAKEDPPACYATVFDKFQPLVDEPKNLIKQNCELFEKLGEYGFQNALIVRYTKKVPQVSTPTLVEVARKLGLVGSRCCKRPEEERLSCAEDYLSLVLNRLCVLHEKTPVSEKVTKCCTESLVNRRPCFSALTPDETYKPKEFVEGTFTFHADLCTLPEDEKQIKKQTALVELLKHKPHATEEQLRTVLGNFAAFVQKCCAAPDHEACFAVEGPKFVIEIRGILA

Substance: B29-N^ε-myristoyl human insulin (from UniProt P01308 90-110; P01308 25-54) (ligand)
- plasma drug levels at 100 minutes after subcutaneous injection (6 nmol/kg) in pigs, by double antibody radioimmunoassay: 18 fold
